From US20130158238A1 (THERACLONE SCIENCES, published 2013)
“And” between values parts separate entries of the source, which are not always exact repeats. Identical values can stand only once.

Columns and labels:
[1] = target: M2 protein on influenza A/Puerto Rico/8/34 (H1N1) virus particles (Influenza A virus A/Puerto Rico/8/34 …, UniProt P06821 1-97)
CM14 = assay: ELISA, peptide 2 µg/mL, mAb 5 µg/mL
NM13 = assay: ELISA, peptide 2 µg/mL, mAb 5 µg/mL
CM17 = assay: ELISA, peptide 2 µg/mL, mAb 5 µg/mL
NM7 = assay: ELISA, peptide 2 µg/mL, mAb 5 µg/mL
M12 = assay: ELISA, peptide 2 µg/mL, mAb 5 µg/mL
NM8 = assay: ELISA, peptide 2 µg/mL, mAb 5 µg/mL
NM14 = assay: ELISA, peptide 2 µg/mL, mAb 5 µg/mL
CM15 = assay: ELISA, peptide 2 µg/mL, mAb 5 µg/mL
CM16 = assay: ELISA, peptide 2 µg/mL, mAb 5 µg/mL
CM13 = assay: ELISA, peptide 2 µg/mL, mAb 5 µg/mL
NM12 = assay: ELISA, peptide 2 µg/mL, mAb 5 µg/mL
CM12 = assay: ELISA, peptide 2 µg/mL, mAb 5 µg/mL
[2] = target: M2 protein of A/Hong Kong/483/1997, on cells (Influenza A virus A/Hong Kong/483/97 (H5N1)); assay: FACS, supernatant on CHO cells stably expressing M2 of A/Hong Kong/483/97
NM15 = assay: ELISA, peptide 2 µg/mL, mAb 5 µg/mL
M15 = assay: ELISA, peptide 2 µg/mL, mAb 5 µg/mL
[3] = target: M2e peptide … (23mer synthetic peptide of M2 derived from A/Fort Worth/1/50) (Influenza A virus A/Fort Worth/1/50 (H1N1)); assay: ELISA, peptide 2 µg/mL, mAb 5 µg/mL
NM17 = assay: ELISA, peptide 2 µg/mL, mAb 5 µg/mL
M16 = assay: ELISA, peptide 2 µg/mL, mAb 5 µg/mL

B1: 23K12 (antibody, V domains shown)
VH: EVQLVESGGGLVQPGGSLRISCAASGFTVSSNYMSWVRQAPGKGLEWVSVIYSGGSTYYADSVKGRFSFSRDNSKNTVFLQMNSLRAEDTAVYYCARCLSRMRGYGLDVWGQGTTVTVS
VL: DIQMTQSPSSLSASVGDRVTITCRTSQSISSYLNWYQQKPGKAPKLLIYAASSLQSGVPSRFSGSGSGTDFTLTISGLQPEDFATYYCQQSYSMPAFGQGTKLEIK
[1]
  EC50 (read off the curve): ~0.06 µg/mL
CM14
  binding activity (ELISA A450): 0.36
NM13
  binding activity (ELISA A450): 0.25
CM17
  binding activity (ELISA A450): 0.34
NM7
  binding activity (ELISA A450): 0.2
M12
  binding activity (ELISA A450): 0.2
NM8
  binding activity (ELISA A450): 0.2
NM14
  binding activity (ELISA A450): 0.24
CM15
  binding activity (ELISA A450): 0.34
CM16
  binding activity (ELISA A450): 0.35
CM13
  binding activity (ELISA A450): 0.34
NM12
  binding activity (ELISA A450): 0.24
CM12
  binding activity (ELISA A450): 0.39

B2: 8i10 (antibody, V domains shown)
VH: QVQLQESGPGLVKPSETLSLTCTVSGSSISNYYWSWIRQSPGKGLEWIGFIYYGGNTKYNPSLKSRVTISQDTSKSQVSLTMSSVTAAESAVYFCARASCSGGYCILDYWGQGTLVTVS
VL: DIQMTQSPSSLSASVGDRVTITCRASQNIYKYLNWYQQRPGKAPKGLISAASGLQSGVPSRFSGSGSGTDFTLTITSLQPEDFATYYCQQSYSPPLTFGGGTRVEIK
[2]
  FACS M2-HK MFI: 754 MFI and 1080 MFI
[1]
  EC50 (read off the curve): ~0.04 µg/mL
CM14
  binding activity (ELISA A450): 0.14
NM13
  binding activity (ELISA A450): 0.11
CM17
  binding activity (ELISA A450): 0.11
NM7
  binding activity (ELISA A450): 0.1
M12
  binding activity (ELISA A450): 0.09
NM8
  binding activity (ELISA A450): 0.1
NM14
  binding activity (ELISA A450): 0.11
NM15
  binding activity (ELISA A450): 0.12
CM15
  binding activity (ELISA A450): 0.12
CM16
  binding activity (ELISA A450): 0.13
M15
  binding activity (ELISA A450): 0.09
[3]
  binding activity (ELISA A450): 0.11
NM17
  binding activity (ELISA A450): 0.26
CM13
  binding activity (ELISA A450): 0.14
NM12
  binding activity (ELISA A450): 0.1
CM12
  binding activity (ELISA A450): 0.14
M16
  binding activity (ELISA A450): 0.09
